# Reference: patent US6495376
# Like-named read-outs stand apart in the source and are kept apart here.
# What was measured:
# GST-WW-domain of Pin1 = GST-WW-domain of Pin1 (UniProt Q13526)
# [1] = molecular target: Pintide analogue WFYpSPFLE; assay: fluorescence anisotropy; low affinity site
# [2] = molecular target: Pintide analogue WFYpSPFLE; assay: fluorescence anisotropy; high affinity site
# [3] = molecular target: Pintide analogue WFYpSPFLE; assay: fluorescence anisotropy, GST-WW-domain titrated on fluorescein-labeled peptide
# [4] = molecular target: Cdc25 Peptide EQPLpTPVTDL; assay: as above
# [5] = molecular target: proteins of labeled HeLa cell lysates pretreated with Ser phosphatases (CIP, PP1 and PP2A); assay: pulldown from labeled HeLa lysates pretreated with Ser phosphatases
# [6] = molecular target: Pintide analogue WFYpSPFLE; assay: fluorescence anisotropy, fluorescein labeled Pintide; high affinity site
# [7] = molecular target: pT231 tau peptide (SEQ ID NO: 20); assay: ELISA on peptide
# [8] = molecular target: pT231 tau peptide (SEQ ID NO: 20); assay: ELISA on peptide; remark: listed apart in the source
# [9] = molecular target: Amyloid Precursor Protein Peptide … (pT-668); assay: ELISA on peptide
# [10] = molecular target: Pintide analogue WFYpSPFLE; assay: fluorescence anisotropy (Table 2 prints 1.0 for the WW-domain)
# [11] = molecular target: tau peptide … (pT-231), SEQ ID NO: 29; assay: ELISA on peptide
# Nedd4 WW-domain-1, sequence (P46935 249-282): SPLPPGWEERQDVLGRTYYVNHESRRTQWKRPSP
substance,measurement,setting,value
"Cdc25C, in vitro translated (35S-Met), phosphorylated by Xenopus mitotic extracts",dephosphorylation of the bound Cdc25C by calf intestine phosphatase (CIP),GST-WW-domain of Pin1,"When mitotically phosphorylated Cdc25C was precipitated using GST beads containing Pin1 or its WW-domain, CIP failed to dephosphorylate Cdc25C."
GST-Pin1 (from UniProt Q13526 1-163) (enzyme),Kd,[1],13000 nM
same,Kd,[2],1200 nM
GST-Pin1^R14A (from UniProt Q13526 1-163) (enzyme),Kd,[1],13500 nM
same,Kd,[2],2000 nM
GST-Pin1^S16A (from UniProt Q13526 1-163) (enzyme),Kd,[1],10500 nM
same,Kd,[2],1200 nM
GST-Pin1^S16E (from UniProt Q13526 1-163) (enzyme),Kd,[1],10500 nM
GST-Pin1^S18E (from UniProt Q13526 1-163) (enzyme),Kd,[1],12000 nM
same,Kd,[2],1000 nM
GST-Pin1^W34A (from UniProt Q13526 1-163) (enzyme),Kd,[1],14000 nM
GST-Pin1^Y23A (from UniProt P08515 1-218; Q13526 1-163) (enzyme),Kd,[1],13500 nM
GST-WW-domain of Pin1 (from UniProt Q13526 1-54),Kd,[3],1000 nM
same,Kd,[4],2200 nM
Nedd4 WW-domain-1 (from UniProt P46935 249-282),fold reduction of binding against untreated lysates,[5],10 fold
Nedd4 WW-domain-2 (from UniProt P46935 405-438),fold reduction of binding against untreated lysates,[5],10 fold
same,Kd,[3],10000 nM
same,Kd,[4],20000 nM
Pin1 (from UniProt Q13526 1-163) (enzyme),Kd,[1],11000 nM
same,Kd,[2],1200 nM
same,Kd,[6],1200 nM
same,Kd,[7],25 nM
same,Binding (OD@405 nm),[8],1.46 OD@405 nm
same,Kd,[8],40 nM
same,Binding (OD@405 nm),[9],1.81 OD@405 nm
Pin1 PPIase domain (amino acids 47-163) (from UniProt Q13526 47-163) (enzyme),Kd,[1],15000 nM
Pin1 WW-domain (amino acids 1-54) (from UniProt Q13526 1-54),Kd,[10],1200 nM
same,Kd,[2],1000 nM
Pin1^R14A (from UniProt Q13526 1-163) (enzyme),Kd,[6],2000 nM
same,Binding (OD@405 nm),[11],1.3 OD@405 nm
Pin1^S16A (from UniProt Q13526 1-163) (enzyme),Kd,[6],1200 nM
Pin1^Y23F (from UniProt Q13526 1-163) (enzyme),Kd,[6],5000 nM
